Consider five molecules from ChEMBL document CHEMBL1221251, “Factorizing the role of a critical leucine residue in the binding of substrate to human 20alpha-hydroxysteroid dehydrogenase (AKR1C1): molecular modeling and kinetic studies of the Leu308Val mutant enzyme” (Bioorg Med Chem Lett, 2010).

In data set [1] the test system is Aldo-keto reductase family 1 member C1 (Homo sapiens), Q04828 [UNDEFINED MUTATION]. Briefly: Ratio of Km for human recombinant AKR1C1 Leu308Val mutant to Km for human recombinant wild type AKR1C1.
Data set [2] has the same test system. Briefly: Ratio of Kcat/Km for human recombinant AKR1C1 Leu308Val mutant to Kcat/Km for human recombinant wild type AKR1C1.
Data set [3] has the same test system. Briefly: Ratio of Kcat/Km for human recombinant AKR1C1 Leu308Ala mutant to Kcat/Km for human recombinant wild type AKR1C1.
The test system is the same in data set [4]. Briefly: Ratio of Km for human recombinant AKR1C1 Leu308Ala mutant to Km for human recombinant wild type AKR1C1.
The target in data set [5] is T1, Aldo-keto reductase family 1 member C1 (Homo sapiens) (UniProt Q04828). Nature of the data set: Ratio of kcat/km for human recombinant wild type AKR1C1 expressed in Escherichia coli JM109 after 15 mins.
Substrate in data set [6]: CC(=O)[C@H]1CC[C@H]2[C@@H]3CC[C@@H]4C[C@H](O)CC[C@]4(C)[C@H]3CC[C@]12C
Briefly: (§1) Activity at human recombinant wild type AKR1C1 expressed in Escherichia coli JM109 after 15 mins.

Substrate in data set [7]: C[C@@H](O)[C@H]1CC[C@H]2[C@@H]3CC[C@H]4C[C@H](O)CC[C@]4(C)[C@H]3CC[C@]12C
The data set is described as §1.

Data set [8] deals with T1, Aldo-keto reductase family 1 member C1 …. Briefly: Activity at human recombinant wild type AKR1C1 expressed in Escherichia coli JM109 after 15 mins.
Substrate in data set [9]: CC(=O)[C@H]1CC[C@H]2[C@@H]3CC[C@@H]4C[C@H](O)CC[C@]4(C)[C@H]3CC[C@]12C
Nature of the data set: (§2) Ratio of kcat/km for human recombinant wild type AKR1C1 expressed in Escherichia coli JM109 after 15 mins.

Substrate in data set [10]: C[C@@H](O)[C@H]1CC[C@H]2[C@@H]3CC[C@H]4C[C@H](O)CC[C@]4(C)[C@H]3CC[C@]12C
Described as §2.

Substrate in data set [11]: CC(=O)[C@H]1CC[C@H]2[C@@H]3CC[C@@H]4C[C@H](O)CC[C@]4(C)[C@H]3CC[C@]12C
Briefly: (§3) Ratio of kcat/km for human recombinant AKR1C1 Leu308Val mutant expressed in Escherichia coli JM109 after 15 mins.

Substrate in data set [12]: C[C@@H](O)[C@H]1CC[C@H]2[C@@H]3CC[C@H]4C[C@H](O)CC[C@]4(C)[C@H]3CC[C@]12C
The description is as §3.

Substrate in data set [13]: CC(=O)[C@H]1CC[C@H]2[C@@H]3CC[C@@H]4C[C@H](O)CC[C@]4(C)[C@H]3CC[C@]12C
Nature of the data set: (§4) Activity at human recombinant AKR1C1 Leu308Val mutant expressed in Escherichia coli JM109 after 15 mins.

Substrate in data set [14]: C[C@@H](O)[C@H]1CC[C@H]2[C@@H]3CC[C@H]4C[C@H](O)CC[C@]4(C)[C@H]3CC[C@]12C
The description is as §4.

With `CC(=O)[C@H]1CC[C@H]2[C@@H]3CC[C@@H]4C[C@H](O)CC[C@]4(C)[C@H]3CC[C@]12C`, the Ratio in [1] was found to be 2; in data set [2], 0.2.

Turning to `C[C@@H](O)[C@H]1CC[C@H]2[C@@H]3CC[C@H]4C[C@H](O)CC[C@]4(C)[C@H]3CC[C@]12C`, the Ratio was found to be 0.4 in data set [1] and 7 in data set [2].

As for `O[C@H]1CCCc2ccccc21`, the Ratio was 2 in data set [1], 0.2 in data set [2], 0.01 in [3] and 67 in data set [4].

B1: Aldo-keto reductase family 1 member C1 (Homo sapiens), Q04828 (protein)
chain: MDSKYQCVKLNDGHFMPVLGFGTYAPAEVPKSKALEATKLAIEAGFRHIDSAHLYNNEEQVGLAIRSKIADGSVKREDIFYTSKLWCNSHRPELVRPALERSLKNLQLDYVDLYLIHFPVSVKPGEEVIPKDENGKILFDTVDLCATWEAVEKCKDAGLAKSIGVSNFNRRQLEMILNKPGLKYKPVCNQVECHPYFNQRKLLDFCKSKDIVLVAYSALGSHREEPWVDPNSPVLLEDPVLCALAKKHKRTPALIALRYQLQRGVVVLAKSYNEQRIRQNVQVFEFQLTSEEMKAIDGLNRNVRYLTLDIFAGPPNYPFSDEY
For B1, the figures for the kcat/Km in data set [5], in data set [9] and in [10] were 61700 M⁻¹ s⁻¹, 61700 M⁻¹ s⁻¹ and 40000 M⁻¹ s⁻¹, respectively. Further, the Km in data set [6] turned out to be 7 µM⁻¹; in data set [7] it was 0.9 µM⁻¹; in [8], 7 µM⁻¹.

B2: Aldo-keto reductase family 1 member C1 (Homo sapiens), Q04828 L308V (protein)
chain: MDSKYQCVKLNDGHFMPVLGFGTYAPAEVPKSKALEATKLAIEAGFRHIDSAHLYNNEEQVGLAIRSKIADGSVKREDIFYTSKLWCNSHRPELVRPALERSLKNLQLDYVDLYLIHFPVSVKPGEEVIPKDENGKILFDTVDLCATWEAVEKCKDAGLAKSIGVSNFNRRQLEMILNKPGLKYKPVCNQVECHPYFNQRKLLDFCKSKDIVLVAYSALGSHREEPWVDPNSPVLLEDPVLCALAKKHKRTPALIALRYQLQRGVVVLAKSYNEQRIRQNVQVFEFQLTSEEMKAIDGLNRNVRYLTVDIFAGPPNYPFSDEY
In the case of B2, the catalytic efficiency (kcat/Km) in [11] was determined as 13300 M⁻¹ s⁻¹; in [12] it was 267000 M⁻¹ s⁻¹. The results for the Km in data set [13] and in data set [14] were 16 µM⁻¹ and 0.4 µM⁻¹, respectively.
